From patent US20180155451A1 (published 2018) come the findings set out here.

The target of one assay is T1, FcγRIIa H (human, UniProt P12318 34-217).
T1 construct: extracellular domain; Soluble extracellular domain with C-terminal His tag, expressed in FreeStyle293 cells; also called FcgRIIa H; 2aH; not shown: C-terminal His tag
T1 sequence (looked up): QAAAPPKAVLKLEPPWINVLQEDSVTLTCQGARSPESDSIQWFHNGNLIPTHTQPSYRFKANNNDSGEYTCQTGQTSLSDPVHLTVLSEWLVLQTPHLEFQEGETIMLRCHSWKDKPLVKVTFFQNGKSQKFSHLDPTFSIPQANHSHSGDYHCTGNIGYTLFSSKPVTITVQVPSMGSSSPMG
Nature of the assay: SPR (Biacore), antibody captured, FcγR as analyte; relative to HeCon Ab. Here is the method: (§1) The heterodimerized antibodies He Abs in which one of the H chains was introduced with an alteration were assayed for their binding activities to each activating FcγR and inhibitory FcγR according to the method described in Example 4. […] The activating FcγRs in FIGS. 26, 27, 28, and 29 are FcγRIa, FcγRIIa (R), FcγRIIa (H), and FcγRIIIa, respectively.
(§2) Analysis of interaction between objective antibody and the FcγR was carried out using Biacore T100 (GE Healthcare). HBS-EP+ (GE Healthcare) was used as the running buffer, and the measurement temperature was set to 25° C. Chips produced by immobilizing the antigen peptide by the amine coupling method to a Series S Sencor Chip CM5 (GE Healthcare), or alternatively, chips produced by allowing preliminarily biotinylated antigen peptides to interact with and immobilize onto a Series S Sensor Chip SA (certified) (GE Healthcare) were used. Antibodies of interest were captured onto an antigen peptide-immobilized chip, and allowed to interact to each FcγR diluted with running buffer. To regenerate and repeatedly use the chip, the antibodies captured on the chip were washed off by reacting 10 mM glycine-HCl, pH 1.5.
For orientation: SPR reads the build-up and loss of mass on a sensor chip optically.

In another assay the target is T2, FcγRIIb (human, UniProt P31994 43-217).
T2 construct: extracellular domain; Soluble extracellular domain with C-terminal His tag, expressed in FreeStyle293 cells; also called FcgRIIb; 2b; not shown: C-terminal His tag
T2 sequence (looked up): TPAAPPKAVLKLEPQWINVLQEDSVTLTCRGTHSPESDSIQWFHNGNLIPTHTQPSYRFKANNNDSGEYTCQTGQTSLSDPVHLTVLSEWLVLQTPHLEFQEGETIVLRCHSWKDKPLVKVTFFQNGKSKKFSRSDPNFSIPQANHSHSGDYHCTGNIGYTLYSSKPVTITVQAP
Described as above. Here is the method:
as §1, §2

B1: GpH7-A5/GpH7-B3 variant S267_14T/GpL16-k0 (antibody, human IgG1, kappa)
heavy 1: not shown
heavy 2: not shown
light: DIVMTQSPLSLPVTPGEPASISCQASESLVHSNRNTYLHWYLQKPGQSPQLLIYKVSNRFSGVPDRFSGSGSGTDFTLKISRVEAEDVGVYYCSQNTHVPPTFGQGTKVEIERTVAAPSVFIFPPSDEQLKSGTASVVCLLNNFYPREAKVQWKVDNALQSGNSQESVTEQDSKDSTYSLSSTLTLSKADYEKHKVYACEVTHQGLSSPVTKSFNRGEC
notes: Heterodimerized anti-glypican-3 IgG1; alteration in the GpH7-B3 chain only; also called He Ab
For B1, in the assay with FcγRIIa H, the He/Con_2aH was 63.3 % of GpH7-A5/GpH7-B3/GpL16-k0 (=100). Further, in the assay with FcγRIIb, the He/Con_2b was 104 % of GpH7-A5/GpH7-B3/GpL16-k0 (=100).

B2: GpH7-A5/GpH7-B3 variant V266_06M/GpL16-k0 (antibody, human IgG1, kappa)
heavy 1: not shown
heavy 2: not shown
light: DIVMTQSPLSLPVTPGEPASISCQASESLVHSNRNTYLHWYLQKPGQSPQLLIYKVSNRFSGVPDRFSGSGSGTDFTLKISRVEAEDVGVYYCSQNTHVPPTFGQGTKVEIERTVAAPSVFIFPPSDEQLKSGTASVVCLLNNFYPREAKVQWKVDNALQSGNSQESVTEQDSKDSTYSLSSTLTLSKADYEKHKVYACEVTHQGLSSPVTKSFNRGEC
notes: as for B1
On to B2, for which, in the assay with FcγRIIa H, the He/Con_2aH was 83.9 % of GpH7-A5/GpH7-B3/GpL16-k0 (=100). Moreover, the He/Con_2b with FcγRIIb was 251 % of GpH7-A5/GpH7-B3/GpL16-k0 (=100).

B3: GpH7-A5/GpH7-B3 variant G237_03V/GpL16-k0 (antibody, human IgG1, kappa)
heavy 1: not shown
heavy 2: not shown
light: DIVMTQSPLSLPVTPGEPASISCQASESLVHSNRNTYLHWYLQKPGQSPQLLIYKVSNRFSGVPDRFSGSGSGTDFTLKISRVEAEDVGVYYCSQNTHVPPTFGQGTKVEIERTVAAPSVFIFPPSDEQLKSGTASVVCLLNNFYPREAKVQWKVDNALQSGNSQESVTEQDSKDSTYSLSSTLTLSKADYEKHKVYACEVTHQGLSSPVTKSFNRGEC
notes: as for B1
B3: the He/Con_2aH with FcγRIIa H was 39.4 % of GpH7-A5/GpH7-B3/GpL16-k0 (=100). For the same molecule, the He/Con_2b with FcγRIIb is 61.4 % of GpH7-A5/GpH7-B3/GpL16-k0 (=100).

B4: GpH7-A5/GpH7-B3 variant P238_04F/GpL16-k0 (antibody, human IgG1, kappa)
heavy 1: not shown
heavy 2: not shown
light: DIVMTQSPLSLPVTPGEPASISCQASESLVHSNRNTYLHWYLQKPGQSPQLLIYKVSNRFSGVPDRFSGSGSGTDFTLKISRVEAEDVGVYYCSQNTHVPPTFGQGTKVEIERTVAAPSVFIFPPSDEQLKSGTASVVCLLNNFYPREAKVQWKVDNALQSGNSQESVTEQDSKDSTYSLSSTLTLSKADYEKHKVYACEVTHQGLSSPVTKSFNRGEC
notes: as for B1
Consider B4, for which the He/Con_2aH in the assay with FcγRIIa H was 65.4 % of GpH7-A5/GpH7-B3/GpL16-k0 (=100). Besides, the He/Con_2b in the assay with FcγRIIb is 312 % of GpH7-A5/GpH7-B3/GpL16-k0 (=100).

B5: GpH7-A5/GpH7-B3 variant P238_13S/GpL16-k0 (antibody, human IgG1, kappa)
heavy 1: not shown
heavy 2: not shown
light: DIVMTQSPLSLPVTPGEPASISCQASESLVHSNRNTYLHWYLQKPGQSPQLLIYKVSNRFSGVPDRFSGSGSGTDFTLKISRVEAEDVGVYYCSQNTHVPPTFGQGTKVEIERTVAAPSVFIFPPSDEQLKSGTASVVCLLNNFYPREAKVQWKVDNALQSGNSQESVTEQDSKDSTYSLSSTLTLSKADYEKHKVYACEVTHQGLSSPVTKSFNRGEC
notes: as for B1
B5: the He/Con_2aH with FcγRIIa H is 50.9 % of GpH7-A5/GpH7-B3/GpL16-k0 (=100). The He/Con_2b with FcγRIIb is 70.4 % of GpH7-A5/GpH7-B3/GpL16-k0 (=100).

B6: GpH7-A5/GpH7-B3 variant P238_06M/GpL16-k0 (antibody, human IgG1, kappa)
heavy 1: not shown
heavy 2: not shown
light: DIVMTQSPLSLPVTPGEPASISCQASESLVHSNRNTYLHWYLQKPGQSPQLLIYKVSNRFSGVPDRFSGSGSGTDFTLKISRVEAEDVGVYYCSQNTHVPPTFGQGTKVEIERTVAAPSVFIFPPSDEQLKSGTASVVCLLNNFYPREAKVQWKVDNALQSGNSQESVTEQDSKDSTYSLSSTLTLSKADYEKHKVYACEVTHQGLSSPVTKSFNRGEC
notes: as for B1
For B6, the He/Con_2aH with FcγRIIa H is 47.6 % of GpH7-A5/GpH7-B3/GpL16-k0 (=100). In addition, in the assay with FcγRIIb, the He/Con_2b was 174 % of GpH7-A5/GpH7-B3/GpL16-k0 (=100).

B7: GpH7-A5/GpH7-B3 variant P238_19Q/GpL16-k0 (antibody, human IgG1, kappa)
heavy 1: not shown
heavy 2: not shown
light: DIVMTQSPLSLPVTPGEPASISCQASESLVHSNRNTYLHWYLQKPGQSPQLLIYKVSNRFSGVPDRFSGSGSGTDFTLKISRVEAEDVGVYYCSQNTHVPPTFGQGTKVEIERTVAAPSVFIFPPSDEQLKSGTASVVCLLNNFYPREAKVQWKVDNALQSGNSQESVTEQDSKDSTYSLSSTLTLSKADYEKHKVYACEVTHQGLSSPVTKSFNRGEC
notes: as for B1
In the case of B7, the He/Con_2aH with FcγRIIa H is 56.4 % of GpH7-A5/GpH7-B3/GpL16-k0 (=100). For the same molecule, the He/Con_2b with FcγRIIb is 110 % of GpH7-A5/GpH7-B3/GpL16-k0 (=100).

B8: GpH7-A5/GpH7-B3 variant S239_05P/GpL16-k0 (antibody, human IgG1, kappa)
heavy 1: not shown
heavy 2: not shown
light: DIVMTQSPLSLPVTPGEPASISCQASESLVHSNRNTYLHWYLQKPGQSPQLLIYKVSNRFSGVPDRFSGSGSGTDFTLKISRVEAEDVGVYYCSQNTHVPPTFGQGTKVEIERTVAAPSVFIFPPSDEQLKSGTASVVCLLNNFYPREAKVQWKVDNALQSGNSQESVTEQDSKDSTYSLSSTLTLSKADYEKHKVYACEVTHQGLSSPVTKSFNRGEC
notes: as for B1
Consider B8, for which, in the assay with FcγRIIa H, the He/Con_2aH was 33.3 % of GpH7-A5/GpH7-B3/GpL16-k0 (=100). The He/Con_2b with FcγRIIb is 102 % of GpH7-A5/GpH7-B3/GpL16-k0 (=100).

B9: GpH7-A5/GpH7-B3 variant S267_06M/GpL16-k0 (antibody, human IgG1, kappa)
heavy 1: not shown
heavy 2: not shown
light: DIVMTQSPLSLPVTPGEPASISCQASESLVHSNRNTYLHWYLQKPGQSPQLLIYKVSNRFSGVPDRFSGSGSGTDFTLKISRVEAEDVGVYYCSQNTHVPPTFGQGTKVEIERTVAAPSVFIFPPSDEQLKSGTASVVCLLNNFYPREAKVQWKVDNALQSGNSQESVTEQDSKDSTYSLSSTLTLSKADYEKHKVYACEVTHQGLSSPVTKSFNRGEC
notes: as for B1
In the case of B9, the He/Con_2aH with FcγRIIa H was 34.3 % of GpH7-A5/GpH7-B3/GpL16-k0 (=100). Moreover, in the assay with FcγRIIb, the He/Con_2b is 210 % of GpH7-A5/GpH7-B3/GpL16-k0 (=100).
